Data from US20200377590A1 (Hoffmann-La Roche, published 2020).
Where a chain is given by its changes, count along the chain named.

T1: CD81 (UniProt P60033 1-236, limits assumed)
T1 construct: whole, on cells; also called CD81 receptor
T1 sequence (looked up): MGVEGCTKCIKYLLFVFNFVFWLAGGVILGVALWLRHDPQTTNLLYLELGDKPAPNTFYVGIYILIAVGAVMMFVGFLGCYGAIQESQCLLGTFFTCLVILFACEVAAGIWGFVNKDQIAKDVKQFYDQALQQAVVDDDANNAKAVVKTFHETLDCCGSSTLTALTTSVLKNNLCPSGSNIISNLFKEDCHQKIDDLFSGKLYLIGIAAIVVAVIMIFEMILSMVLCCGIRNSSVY

B1: CD81K13 HC 03-hVH_1_69 / LC 05-hVK_1_39 (antibody, V domains shown)
VH: QVQLVQSGAEVKKPGSSVKVSCKASGFNFKDSYLHWVRQAPGQGLEWMGRIDTGNGNVKYAQKFQGRVTITADESTSTAYMELSSLRSEDTAVYYCAPYGYGFHSWGQGTLVTVSS
VL: DIQMTQSPSSLSASVGDRVTITCRASENIYRTLAWYQQKPGKAPKLLIYAATTLASGVPSRFSGSGSGTDFTLTISSLQPEDFATYYCQHFWGTPWTFGQGTKVEIK
notes: human constant region
B2: CD81K13 HC 06-hVH_1_3 / LC 07-hVK_1_27 (antibody, V domains shown)
VH: B1 VH with S16A, F27Y, N28T, G44R, Y60F, A61D, Q62P, A72T, E74T, T76A
VL: B1 VL with A43V, F83V, A84G, H90K
notes: human constant region
B3: CD81K13 HC 05-hVH_1_69 / LC 5b-hVK_1_39-GA (antibody, V domains shown)
VH: B1 VH with Y60F, A61D, Q62P, A72T, A97V
VL: B1 VL with A50G, S56D
notes: human constant region
B4: CD81K13 HC 05-hVH_1_69 / LC 03-hVK_1_9 (antibody, V domains shown)
VH: B1 VH with Y60F, A61D, Q62P, A72T, A97V
VL: B1 VL with M4L, S10F, D70E
notes: human constant region
B5: CD81K13 HC 03-hVH_1_69 / LC 5b-hVK_1_39-GA (antibody, V domains shown)
VH: B1 VH
VL: B1 VL with A50G, S56D
notes: human constant region
B6: CD81K13 HC 07-hVH_1_3 / LC 03-hVK_1_9 (antibody, V domains shown)
VH: B1 VH with S16A, F27Y, N28T, Y60F, A61D, Q62P, A72T, E74T, T76A
VL: B1 VL with M4L, S10F, D70E
notes: human constant region
B7: CD81K13 HC 5b-hVH_1_69-GA / LC 07-hVK_1_27 (antibody, V domains shown)
VH: B1 VH with V11L, K12V, Y60F, A61D, Q62P, A72T, A97V
VL: B1 VL with A43V, F83V, A84G, H90K
notes: human constant region
B8: CD81K13 HC 05-hVH_1_69 / LC 06-hVK_1_39 (antibody, V domains shown)
VH: B1 VH with Y60F, A61D, Q62P, A72T, A97V
VL: B1 VL with A84G
notes: human constant region
B9: CD81K13 HC 03-hVH_1_69 / LC 06-hVK_1_39 (antibody, V domains shown)
VH: B1 VH
VL: B1 VL with A84G
notes: human constant region
B10: CD81K13 HC 06-hVH_1_3 / LC 04-hVK_1_9 (antibody, V domains shown)
VH: B1 VH with S16A, F27Y, N28T, G44R, Y60F, A61D, Q62P, A72T, E74T, T76A
VL: B1 VL with M4L, S10F, D70E, A84G
notes: human constant region
B11: CD81K13 HC 07-hVH_1_3 / LC 5b-hVK_1_39-GA (antibody, V domains shown)
VH: B1 VH with S16A, F27Y, N28T, Y60F, A61D, Q62P, A72T, E74T, T76A
VL: B1 VL with A50G, S56D
notes: human constant region
B12: CD81K13 HC 5b-hVH_1_69 / LC 5b-hVK_1_39-GA (antibody, V domains shown)
VH: B1 VH with V11L, K12V, Y60F, A61D, Q62P, A72T, A97V
VL: B1 VL with A50G, S56D
notes: human constant region
B13: CD81K13 HC 06-hVH_1_3 / LC 5b-hVK_1_39 (antibody, V domains shown)
VH: B1 VH with S16A, F27Y, N28T, G44R, Y60F, A61D, Q62P, A72T, E74T, T76A
VL: B1 VL with A50G, S56D
notes: human constant region
B14: CD81K13 HC 06-hVH_1_3 / LC 05-hVK_1_39 (antibody, V domains shown)
VH: B1 VH with S16A, F27Y, N28T, G44R, Y60F, A61D, Q62P, A72T, E74T, T76A
VL: B1 VL
notes: human constant region
B15: CD81K13 HC 03-hVH_1_69 / LC 5b-hVK_1_39 (antibody, V domains shown)
VH: B1 VH
VL: B1 VL with A50G, S56D
notes: human constant region
B16: CD81K13 HC 06-hVH_1_3 / LC 5b-hVK_1_39-GA (antibody, V domains shown)
VH: B1 VH with S16A, F27Y, N28T, G44R, Y60F, A61D, Q62P, A72T, E74T, T76A
VL: B1 VL with A50G, S56D
notes: human constant region
B17: CD81K13 HC 05-hVH_1_69 / LC 5b-hVK_1_39 (antibody, V domains shown)
VH: B1 VH with Y60F, A61D, Q62P, A72T, A97V
VL: B1 VL with A50G, S56D
notes: human constant region
B18: CD81K13 HC 5b-hVH_1_69 / LC 05-hVK_1_39 (antibody, V domains shown)
VH: B1 VH with V11L, K12V, Y60F, A61D, Q62P, A72T, A97V
VL: B1 VL
notes: human constant region
B19: CD81K13 HC 07-hVH_1_3 / LC 04-hVK_1_9 (antibody, V domains shown)
VH: B1 VH with S16A, F27Y, N28T, Y60F, A61D, Q62P, A72T, E74T, T76A
VL: B1 VL with M4L, S10F, D70E, A84G
notes: human constant region
B20: CD81K13 HC 05-hVH_1_69 / LC 04-hVK_1_9 (antibody, V domains shown)
VH: B1 VH with Y60F, A61D, Q62P, A72T, A97V
VL: B1 VL with M4L, S10F, D70E, A84G
notes: human constant region
B21: CD81K13 HC 06-hVH_1_3 / LC 06-hVK_1_39 (antibody, V domains shown)
VH: B1 VH with S16A, F27Y, N28T, G44R, Y60F, A61D, Q62P, A72T, E74T, T76A
VL: B1 VL with A84G
notes: human constant region
B22: CD81K13 HC 5b-hVH_1_69-GA / LC 5b-hVK_1_39-GA (antibody, V domains shown)
VH: B1 VH with V11L, K12V, Y60F, A61D, Q62P, A72T, A97V
VL: B1 VL with A50G, S56D
notes: human constant region
B23: CD81K13 HC 5b-hVH_1_69-GA / LC 05-hVK_1_39 (antibody, V domains shown)
VH: B1 VH with V11L, K12V, Y60F, A61D, Q62P, A72T, A97V
VL: B1 VL
notes: human constant region
B24: CD81K13 HC 5b-hVH_1_69 / LC 03-hVK_1_9 (antibody, V domains shown)
VH: B1 VH with V11L, K12V, Y60F, A61D, Q62P, A72T, A97V
VL: B1 VL with M4L, S10F, D70E
notes: human constant region
B25: CD81K13 HC 07-hVH_1_3 / LC 05-hVK_1_39 (antibody, V domains shown)
VH: B1 VH with S16A, F27Y, N28T, Y60F, A61D, Q62P, A72T, E74T, T76A
VL: B1 VL
notes: human constant region
B26: CD81K13 HC 5b-hVH_1_69-GA / LC 03-hVK_1_9 (antibody, V domains shown)
VH: B1 VH with V11L, K12V, Y60F, A61D, Q62P, A72T, A97V
VL: B1 VL with M4L, S10F, D70E
notes: human constant region
B27: CD81K13 HC 5b-hVH_1_69 / LC 04-hVK_1_9 (antibody, V domains shown)
VH: B1 VH with V11L, K12V, Y60F, A61D, Q62P, A72T, A97V
VL: B1 VL with M4L, S10F, D70E, A84G
notes: human constant region
B28: CD81K13 HC 5b-hVH_1_69-GA / LC 5b-hVK_1_39 (antibody, V domains shown)
VH: B1 VH with V11L, K12V, Y60F, A61D, Q62P, A72T, A97V
VL: B1 VL with A50G, S56D
notes: human constant region
B29: CD81K13 HC 5b-hVH_1_69 / LC 06-hVK_1_39 (antibody, V domains shown)
VH: B1 VH with V11L, K12V, Y60F, A61D, Q62P, A72T, A97V
VL: B1 VL with A84G
notes: human constant region
B30: CD81K13 HC 5b-hVH_1_69 / LC 07-hVK_1_27 (antibody, V domains shown)
VH: B1 VH with V11L, K12V, Y60F, A61D, Q62P, A72T, A97V
VL: B1 VL with A43V, F83V, A84G, H90K
notes: human constant region
B31: CD81K13 HC 07-hVH_1_3 / LC 06-hVK_1_39 (antibody, V domains shown)
VH: B1 VH with S16A, F27Y, N28T, Y60F, A61D, Q62P, A72T, E74T, T76A
VL: B1 VL with A84G
notes: human constant region
B32: CD81K13 HC 07-hVH_1_3 / LC 5b-hVK_1_39 (antibody, V domains shown)
VH: B1 VH with S16A, F27Y, N28T, Y60F, A61D, Q62P, A72T, E74T, T76A
VL: B1 VL with A50G, S56D
notes: human constant region
B33: CD81K13 HC 5b-hVH_1_69 / LC 5b-hVK_1_39 (antibody, V domains shown)
VH: B1 VH with V11L, K12V, Y60F, A61D, Q62P, A72T, A97V
VL: B1 VL with A50G, S56D
notes: human constant region
B34: CD81K13 HC 06-hVH_1_3 / LC 03-hVK_1_9 (antibody, V domains shown)
VH: B1 VH with S16A, F27Y, N28T, G44R, Y60F, A61D, Q62P, A72T, E74T, T76A
VL: B1 VL with M4L, S10F, D70E
notes: human constant region
B35: CD81K13 HC 5b-hVH_1_69-GA / LC 06-hVK_1_39 (antibody, V domains shown)
VH: B1 VH with V11L, K12V, Y60F, A61D, Q62P, A72T, A97V
VL: B1 VL with A84G
notes: human constant region
B36: CD81K13 HC 07-hVH_1_3 / LC 07-hVK_1_27 (antibody, V domains shown)
VH: B1 VH with S16A, F27Y, N28T, Y60F, A61D, Q62P, A72T, E74T, T76A
VL: B1 VL with A43V, F83V, A84G, H90K
notes: human constant region
B37: CD81K13 HC 5b-hVH_1_69-GA / LC 04-hVK_1_9 (antibody, V domains shown)
VH: B1 VH with V11L, K12V, Y60F, A61D, Q62P, A72T, A97V
VL: B1 VL with M4L, S10F, D70E, A84G
notes: human constant region
B38: CD81K13 HC 04-hVH_1_69 / LC CD81K13 (antibody, V domains shown)
VH: EVQLVESGGGLVQPGRSLRLSCTASGFNFKDSYLHWVRQAPGQGLEWMGRIDTGNGNVKFDPKFQGRVTITADESTSTAYMELSSLRSEDTAVYYCVPYGYGFHSWGQGTLVTVSS
VL: DIQMTQSPASLSVSVGETVTITCRASENIYRTLAWYLQKQGKSPQLLVYGATTLADGVPSRFSGSGSGTQYYLKINSLQSEDFGTYHCQHFWGTPWTFGGGTKVEIK
notes: human constant region
B39: CD81K13 HC 04-hVH_1_69 / LC 01-hVK_3_15 (antibody, V domains shown)
VH: B38 VH
VL: EIVMTQSPATLSVSPGERATLSCRASENIYRTLAWYQQKPGQAPRLLIYGATTRATGIPARFSGSGSGTEFTLTISSLQSEDFGVYYCQHFWGTPWTFGQGTKVEIK
notes: human constant region
B40: CD81K13 HC 04-hVH_1_69 / LC 1b-hVK_3_15 (antibody, V domains shown)
VH: B38 VH
VL: B39 VL with R54L, T56D, G84A
notes: human constant region
B41: CD81K13 HC 04-hVH_1_69 / LC 1c-hVK_3_15 (antibody, V domains shown)
VH: B38 VH
VL: B39 VL with R54L, T56D
notes: human constant region

target: T1, CD81; test: cell ELISA;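 further: antibody binding to HuH7 cells expressing CD81 versus a CD81-negative HuH7 control line, bound antibody detected by secondary reagent, absorbance at 450 nm with 620 nm reference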

Binder | ELISA data
B1 | 0.525
B2 | 0.078
B3 | 0.551
B4 | 0.787
B5 | 0.552
B6 | 0.331
B7 | 0.11
B8 | 0.603
B9 | 0.484
B10 | 0.371
B11 | 0.363
B12 | 0.646
B13 | 0.388
B14 | 0.315
B15 | 0.546
B16 | 0.37
B17 | 0.692
B18 | 0.905
B19 | 0.141
B20 | 0.685
B21 | 0.323

Binder | ELISA data
B22 | 0.684
B23 | 0.858
B24 | 0.73
B25 | 0.4
B26 | 0.788
B27 | 0.695
B28 | 0.737
B29 | 0.522
B30 | 0.114
B31 | 0.269
B32 | 0.448
B33 | 0.463
B34 | 0.352
B35 | 0.528
B36 | 0.073
B37 | 0.786
B38 | 0.776
B39 | 0.513
B40 | 0.277
B41 | 0.395
